Laboratory results as given in PMC5362245, “Depletion of Arabidopsis SC35 and SC35-like serine/arginine-rich proteins affects the transcription and splicing of a subset of genes”.

Columns and labels:
SCL30 [1] = biological target: T1, SCL30 (UniProt Q8L3X8 1-262); test: competition; mutated probe failed to compete with N1; 20 ul, 2 ug tRNA, 10 nM biotin-RNA, LightShift Chemiluminescent RNA EMSA kit buffer (salt and pH not stated), 30 min room temperature; 6% native PAGE in 0.5x TBE; details: protein: recombinant; tags: His
T1 sequence: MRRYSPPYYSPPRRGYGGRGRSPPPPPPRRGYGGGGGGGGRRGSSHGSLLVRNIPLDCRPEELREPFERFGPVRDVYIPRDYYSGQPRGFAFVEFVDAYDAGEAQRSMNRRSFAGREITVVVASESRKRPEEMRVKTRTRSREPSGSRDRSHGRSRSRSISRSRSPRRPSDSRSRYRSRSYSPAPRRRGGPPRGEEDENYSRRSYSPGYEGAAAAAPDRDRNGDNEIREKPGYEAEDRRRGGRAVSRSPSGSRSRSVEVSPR

SCL30 [2] = biological target: T1, SCL30; test: competition; 0.625-5 uM unlabeled RNA vs 10 nM N1, 0.4 ug SCL30; labeled binding abolished at 5 uM; 20 ul, 2 ug tRNA, 10 nM biotin-RNA, LightShift Chemiluminescent RNA EMSA kit buffer (salt and pH not stated), 30 min room temperature; 6% native PAGE in 0.5x TBE; details: protein: recombinant; tags: His; label: none
SCL30 [3] = biological target: T1, SCL30; test: EMSA; 2 ug tRNA, 10 nM labeled RNA; 20 ul, 2 ug tRNA, 10 nM biotin-RNA, LightShift Chemiluminescent RNA EMSA kit buffer (salt and pH not stated), 30 min room temperature; 6% native PAGE in 0.5x TBE; details: protein: recombinant; tags: His; label: 5' biotin

B1: AT1G53250 mutated RNA probe (AGAAGA to UCUUCU) (ssRNA)
RNA: AGAUUAAUCUUCUGGAAAGGAGAAGG
B1: no binding (SCL30 [1]).

B2: AT1G53250 RNA, unlabeled competitor (ssRNA)
RNA: AGAUUAAAGAAGAGGAAAGGAGAAGG
B2: binds (SCL30 [2]).

B3: AT1G53250 AGAAGA RNA probe (ssRNA)
RNA: AGAUUAAAGAAGAGGAAAGGAGAAGG
B3: binds (SCL30 [3]).
